Results published in paper PMC8154891, “TAPBPR promotes antigen loading on MHC-I molecules using a peptide trap” (Nature Communications, 2021).
“And” between values parts separate entries of the source, which are not always exact repeats. Equal entries are not always repeated.

Legend:
[1] = target: T1, HLA-A*02:01/hβ2m (empty MHC-I released from TAPBPR^ΔG24-R36 complex) (Homo sapiens, UniProt P04439, D140Y/D185E/D98H/E176V/E277Q/G131W/G231S/I119V/I121R/I166T/I218V/L300P/L318F/N151K/N90K/P208A/P217A/Q86G/Q94H/R138H/R169H/T345S); assay: ITC, KD2,app: peptide titrated into peptide-deficient HLA-A*02:01/hβ2m/TAPBPR^ΔG24-R36 complex, no excess TAPBPR; format: binding; details: ~50–100 μM peptide into ~15 μM peptide-deficient complex, pH 7.2, one-site fit, one technical replicate, error from fit
T1 construct: DNA plasmid constructs encoding the luminal domain of human HLA-A*02:01 (heavy chain); made in house

[2] = target: T2, peptide-deficient HLA-A*02:01/hβ2m/TAPBPR^WT complex (Homo sapiens, UniProt P04439, D140Y/D185E/D98H/E176V/E277Q/G131W/G231S/I119V/I121R/I166T/I218V/L300P/L318F/N151K/N90K/P208A/P217A/Q86G/Q94H/R138H/R169H/T345S); assay: ITC, KD4: peptide titrated into empty HLA-A*02:01/TAPBPR^WT complex with excess TAPBPR; format: binding; details: ~150–200 μM peptide into ~15 μM peptide-deficient complex and 50 μM excess TAPBPR, pH 7.2, one-site fit, error from fit
T2 construct: DNA plasmid constructs encoding the luminal domain of human HLA-A*02:01 (heavy chain); made in house; TAPBPR: Drosophila S2 cells

[3] = target: T3, HLA-A*02:01/hβ2m (empty MHC-I released from TAPBPR^WT complex) (Homo sapiens, UniProt P04439, D140Y/D185E/D98H/E176V/E277Q/G131W/G231S/I119V/I121R/I166T/I218V/L300P/L318F/N151K/N90K/P208A/P217A/Q86G/Q94H/R138H/R169H/T345S); assay: ITC, KD2,app: peptide titrated into peptide-deficient HLA-A*02:01/hβ2m/TAPBPR^WT complex, no excess TAPBPR; format: binding; details: ~50–100 μM peptide into ~15 μM peptide-deficient complex, 50 mM NaCl, 20 mM sodium phosphate pH 7.2, one-site fit, one technical replicate, error from fit
T3 construct: DNA plasmid constructs encoding the luminal domain of human HLA-A*02:01 (heavy chain); made in house; TAPBPR: Drosophila S2 cells

[4] = target: T4, peptide-deficient HLA-A*02:01/hβ2m/TAPBPR^ΔG24-R36 complex (Homo sapiens, UniProt P04439, D140Y/D185E/D98H/E176V/E277Q/G131W/G231S/I119V/I121R/I166T/I218V/L300P/L318F/N151K/N90K/P208A/P217A/Q86G/Q94H/R138H/R169H/T345S); assay: ITC, KD4: peptide titrated into empty HLA-A*02:01/TAPBPR^ΔG24-R36 complex with excess TAPBPR; format: binding; details: ~150–200 μM peptide into ~15 μM peptide-deficient complex and 50 μM excess TAPBPR, pH 7.2, one-site fit, error from fit
T4 construct: DNA plasmid constructs encoding the luminal domain of human HLA-A*02:01 (heavy chain); made in house

HLA-A*02:01/hβ2m = details: DSF, 7 μM HLA-A*02:01/hβ2m in complex with the peptide, 10× SYPRO orange, 1 °C/min, pH 7.2; n = 3 technical replicates
[5] = target: peptide-deficient (empty) HLA-A*02:01/hβ2m (human); assay: ITC
[6] = target: TAMRA-TAX9 in complex with HLA-A*02:01 (hβ2m) (human | HTLV-1); assay: fluorescence polarisation
[7] = target: TAPBPR^ΔG24-R36 (luminal domain, deletion of residues G24-R36) (human); assay: ITC
[8] = target: TAPBPR^WT (TAP-binding protein related, wild-type, luminal domain) (human); assay: ITC
MHC-I = details: read-out: estimated KD of the MHC-I/TAPBPR interaction; SPR experiments of an analogous system; cited from earlier work
HLA-A*01:01 = HLA-A*01:01 (Homo sapiens, UniProt P04439, A114D/A174V/A182V/D101N/D185E/E176A/E190D/L180R/Q94H/R68K/S129P/T187R/V100A/V91M/W191G); details: yeast-displayed TAPBPR, flow cytometry
TAX8/HLA-A*02:01/hβ2m = assay: FP, KD3: TAPBPR titrated into TAMRA-TAX9 and TAX8/HLA-A*02:01/hβ2m; format: binding, human; details: TAPBPR (0–80 μM) titrated into 1 nM TAMRA-TAX9 and 50 nM TAX8/HLA-A*02:01/hβ2m; 25 °C, pH 7.2, 0.05% tween-20; read-out: KD3 from FP

## CC[C@H](C)[C@H](NC(=O)[C@H](CCC(=O)O)NC(=O)[C@H](CC(C)C)NC(=O)[C@H](CC(C)C)NC(=O)[C@@H](N)CCCCN)C(=O)N1CCC[C@H]1C(=O)N[C@@H](CC(=O)O)C(=O)N1CCC[C@H]1C(=O)N[C@@H](CC(=O)O)C(=O)N[C@@H](CCCCN)C(=O)N[C@@H](CC(N)=O)C(=O)N[C@@H](Cc1c[nH]c2ccccc12)C(=O)N[C@@H](C)C(=O)N[C@H](C(=O)N[C@@H](CC(C)C)C(=O)O)[C@@H](C)O [KLL15]
[1]
  Kd: 334 ± 20 nM
[2]
  Kd: 21600 ± 7000 nM
[3]
  Kd: 383 ± 22 nM
[4]
  Kd: 49500 ± 8600 nM

## LLFGGGGYPVYV [TAX12]
HLA-A*02:01/hβ2m
  Tm of pMHC-I complex: 53.2 °C

## LLFGGYPVYV [TAX10]
HLA-A*02:01/hβ2m
  Tm of pMHC-I complex: 58.9 °C

## TAPBPR^WT (TAP-binding protein related, wild-type, luminal domain) (domain or fragment)
[5]
  Kd: 37.4 nM and 30.6 nM and 38.8 nM
[6]
  Kd: 2000 nM

## TAPBPR^ΔALAS (luminal domain, deletion of residues A29-S32) (domain or fragment)
[6]
  Kd: 2000 nM

## TAPBPR^ΔG24-R36 (luminal domain, deletion of residues G24-R36) (domain or fragment)
[5]
  Kd: 13.9 nM and 11.1 nM and 14.2 nM
[6]
  Kd: 2000 nM

## TAX9/HLA-A*02:01/hβ2m (from UniProt P61769 21-119) (peptide-MHC)
[7]
  Kd: 1800 nM
[8]
  Kd: 1900 nM
  stoichiometry N: 1.02

B1: TAPBPR WT: wild-type human TAPBPR; luminal domain from S2 cells in vitro, FLAG-tagged full length in Expi293F cells (protein, UniProt Q9BX59 19-468, looked up)
Tapasin-related protein: AETKPHPAEGQWRAVDVVLDCFLAKDGAHRGALASSEDRARASLVLKQVPVLDDGSLEDFTDFQGGTLAQDDPPIIFEASVDLVQIPQAEALLHADCSGKEVTCEISRYFLQMTETTVKTAAWFMANMQVSGGGPSISLVMKTPRVTKNEALWHPTLNLPLSPQGTVRTAVEFQVMTQTQSLSFLLGSSASLDCGFSMAPGLDLISVEWRLQHKGRGQLVYSWTAGQGQAVRKGATLEPAQLGMARDASLTLPGLTIQDEGTYICQITTSLYRAQQIIQLNIQASPKVRLSLANEALLPTLICDIAGYYPLDVVVTWTREELGGSPAQVSGASFSSLRQSVAGTYSISSSLTAEPGSAGATYTCQVTHISLEEPLGASTQVVPPERRTALGVIFASSLFLLALMFLGLQRRQAPTGLGLLQAERWETTSCADTQSSHLHEDRTARVSQPS
modifications: FLAG tag
MHC-I
  Kd: ~190 nM
HLA-A*01:01
  binding of HLA-A*01:01 tetramers: No binding
TAX8/HLA-A*02:01/hβ2m
  Kd: ~2000 nM
